The source of these data is patent publication US20240228562A1 (Pieris, published 2024).

The target of one assay is T1, mouse CTGF (Abbexa) (mouse, UniProt P29268 26-348, limits assumed).
T1 construct: also called Murine CTGF; mCTGF
T1 sequence (looked up): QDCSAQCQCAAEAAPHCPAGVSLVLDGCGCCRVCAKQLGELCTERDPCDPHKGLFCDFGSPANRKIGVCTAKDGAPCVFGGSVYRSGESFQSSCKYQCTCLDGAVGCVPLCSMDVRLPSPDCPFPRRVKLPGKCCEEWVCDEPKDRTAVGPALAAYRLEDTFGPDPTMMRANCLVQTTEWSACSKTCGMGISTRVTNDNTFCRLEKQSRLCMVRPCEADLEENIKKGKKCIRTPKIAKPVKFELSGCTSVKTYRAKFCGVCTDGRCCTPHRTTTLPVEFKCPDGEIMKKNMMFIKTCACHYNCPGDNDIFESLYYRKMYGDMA
Briefly: SPR (Biacore). The gist of the method:
(§1)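 Lipocalin muteins injected at 25 °C over CTGF either Fc-tagged and captured by anti-human IgG-Fc (0.25-2.5 μg/mL in HBS-EP+, 180 s) or amine-coupled directly to a CM5 chip. Association 180 s, dissociation 900-3600 s, flow 30 μL/min.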
(In general: SPR reads the build-up and loss of mass on a sensor chip optically.)

The target in a further assay is T2, cynomolgus CTGF (cynomolgus, UniProt I7G525 27-349).
T2 construct: also called cyCTGF
T2 sequence: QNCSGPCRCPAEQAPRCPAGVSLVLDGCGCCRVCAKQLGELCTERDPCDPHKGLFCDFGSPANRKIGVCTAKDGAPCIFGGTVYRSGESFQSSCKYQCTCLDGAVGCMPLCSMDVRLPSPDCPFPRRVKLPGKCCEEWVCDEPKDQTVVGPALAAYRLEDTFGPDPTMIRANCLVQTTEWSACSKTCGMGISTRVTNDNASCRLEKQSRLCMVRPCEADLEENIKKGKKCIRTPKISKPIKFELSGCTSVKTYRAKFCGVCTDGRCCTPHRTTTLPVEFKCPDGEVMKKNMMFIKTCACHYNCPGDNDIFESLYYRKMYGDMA
The assay is described as follows: SPR (Biacore). The gist of the method: as §1

B1: lipocalin mutein of SEQ ID NO: 9 (designed binder)
chain: QDSTSDLIPAPPLSKVPLQQNFQDNQFHGKWYVVGLAGNKILRIDKQPAKMFATIYELKEDKSYDVTSVRFEARSCSYTIKTFVPGSQPGEFTAGNIKSAPGQTSTLVRVVSTNYNQHAMVFFKHVSQNRETFVITLYGRTKELTSELKENFIRFSKSLGLPENHIVFPVPIDQCIDGSAWSHPQFEK
notes: Parent hNGAL mutein; also called hNGAL mutein
For orientation: Kd means the equilibrium constant for the complex coming apart. Lower therefore signals higher affinity. One may read the koff as the first-order rate constant of dissociation. As usually defined, the kon is the rate constant with which the complex forms. A low value points to slower complex formation. Consider B1, for which, in the assay with mouse CTGF (Abbexa), binding was characterised by a dissociation constant (Kd) of 6.26 nM, the koff is 0.000832 s⁻¹ and the kon worked out at 133000 M⁻¹ s⁻¹.

B2: lipocalin mutein of SEQ ID NO: 29 (designed binder)
chain: QDSTSDLIPAPPLSKVPLQQNFQDNQFHGKWYVVGWAGNIKLREDKDPFKMSATIYELKEDKSYNVTEVVFEQKKCHYIIKTFVPGSQPGEFTLGDIKSPPGETSSLVRVVSTNYNQHAMVFFKKVFQNREFFWITLYGRTKELTSELKENFIRFSKSLGLPENHIVFPVPIDQCIDGSAWSHPQFEK
notes: as for B1
For B2, the binding result in the assay with mouse CTGF (Abbexa) was “no binding (tested: typically 0.43-2000 nM)”.

B3: lipocalin mutein of SEQ ID NO: 15 (designed binder)
chain: QDSTSDLIPAPPLSKVPLQQNFQDNQFQGKWYVVGLAGNAILREDKQPAKMFATIYELKEDKSYDVTSVRFEAKSCKYTIKTFVPGSQPGEFTAGYIKSAPGQTSTLVRVVSTNYNQHAMVFFKHVTQNREIFVITLYGRTKELTSELKENFIRFSKSLGLPENHIVFPVPIDQCIDG
notes: also called hNGAL mutein; not shown: C-terminal His-tag
As for B3, in the assay with mouse CTGF (Abbexa), the affinity, expressed as Kd, was 0.349 nM; the koff came to 4.51e-05 s⁻¹; the kon came to 129000 M⁻¹ s⁻¹. In the assay with cynomolgus CTGF, this molecule had a Kd of 0.707 nM, a koff of 7.57e-05 s⁻¹ and a kon of 107000 M⁻¹ s⁻¹.

B4: lipocalin mutein of SEQ ID NO: 25 (designed binder)
chain: QDSTSDLIPAPPLSKVPLQQNFQDNQFHGKWYVVGMAGNFRLREDKDPSKMGATIYELKEDKSYNVTQVQFDDKKCLYVIETFVPGSQPGEFTLGAIKSFPGFTSQLVRVVSTNYNQHAMVFFKKVYQNREVFWITLYGRTKELTSELKENFIRFSKSLGLPENHIVFPVPIDQCIDGSAWSHPQFEK
notes: as for B1
On to B4, for which the binding result with mouse CTGF (Abbexa) was “no binding (tested: typically 0.43-2000 nM)”.
